B1: SAT2 (parent)
chain: LTEAEGWHFFCFQGEATRKLAGK

Variants of: B1
Test: protein stability index of a GFP-peptide fusion (GPS, HEK-293T) (PSI 1-6); higher = more stable
Conditions: c terminus: native
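Also: lentivirally expressed fusions sorted by FACS into six bins by GFP to DsRed ratio, PSI derived from sequencing read proportions per bin multiplied by bin number.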

Variant | protein stability index
LREAEGWHFFCFQGEATRKLAGK | 2.14
LEEAEGWHFFCFQGEATRKLAGK | 3.48
LKEAEGWHFFCFQGEATRKLAGK | 2.14
LDEAEGWHFFCFQGEATRKLAGK | 2.97
LFEAEGWHFFCFQGEATRKLAGK | 1.8
LPEAEGWHFFCFQGEATRKLAGK | 2.12
LHEAEGWHFFCFQGEATRKLAGK | 2.32
LYEAEGWHFFCFQGEATRKLAGK | 1.56
LTEAEGPHFFCFQGEATRKLAGK | 4.43
LTEAEGSHFFCFQGEATRKLAGK | 4.22
LTEAEGNHFFCFQGEATRKLAGK | 4.35
LTEAEGHHFFCFQGEATRKLAGK | 3.96
LTEAEGVHFFCFQGEATRKLAGK | 3.42
LTEAEGRHFFCFQGEATRKLAGK | 3.72
LTEAEGLHFFCFQGEATRKLAGK | 3.12
LTEAEGDHFFCFQGEATRKLAGK | 4.63
LTEQEGWHFFCFQGEATRKLAGK | 2.36
LTEFEGWHFFCFQGEATRKLAGK | 1.31
LTECEGWHFFCFQGEATRKLAGK | 1.45
LTEREGWHFFCFQGEATRKLAGK | 2.17
LTEYEGWHFFCFQGEATRKLAGK | 1.56
LTEKEGWHFFCFQGEATRKLAGK | 2.61
LTETEGWHFFCFQGEATRKLAGK | 2.9
LTEAEGWRFFCFQGEATRKLAGK | 1.54
LTEAEGWGFFCFQGEATRKLAGK | 3.25

Variant | protein stability index
LTEAEGWKFFCFQGEATRKLAGK | 3.24
LTEAEGWTFFCFQGEATRKLAGK | 3.27
LTEAEGWVFFCFQGEATRKLAGK | 1.91
LTEAEGWEFFCFQGEATRKLAGK | 3.41
LTEAEGWHFFCEQGEATRKLAGK | 3.33
LTEAEGWHFFCTQGEATRKLAGK | 3.88
LTEAEGWHFFCDQGEATRKLAGK | 4.53
LTEAEGWHFFCCQGEATRKLAGK | 3.39
LTEAEGWHFFCGQGEATRKLAGK | 3.42
LTEAEGWHFFCHQGEATRKLAGK | 3.95
LTEAEGWHFFCKQGEATRKLAGK | 4.01
LTEAEGWHFFCNQGEATRKLAGK | 3.84
LTEAEGWHFFCIQGEATRKLAGK | 2.55
LTEAEGWHFFCLQGEATRKLAGK | 2.48
LTEAEGWHFFCPQGEATRKLAGK | 3.85
LTFAEGWHFFCFQGEATRKLAGK | 1.64
LTQAEGWHFFCFQGEATRKLAGK | 1.82
LTDAEGWHFFCFQGEATRKLAGK | 2.49
LTCAEGWHFFCFQGEATRKLAGK | 1.89
LTAAEGWHFFCFQGEATRKLAGK | 1.79
LTLAEGWHFFCFQGEATRKLAGK | 1.58
LTSAEGWHFFCFQGEATRKLAGK | 1.75
LTHAEGWHFFCFQGEATRKLAGK | 1.67
LTMAEGWHFFCFQGEATRKLAGK | 2.56
LTWAEGWHFFCFQGEATRKLAGK | 1.37

Variant | protein stability index
LTIAEGWHFFCFQGEATRKLAGK | 3.97
LTPAEGWHFFCFQGEATRKLAGK | 1.74
LTEAEGWHFFCFQGEATRKFAGK | 1.97
LTEAEGWHFFCFQGEATRKIAGK | 2.34
LTEAEGWHFFCFQGEATRKSAGK | 2.94
LTEAEGWHFFCFQGEATRKPAGK | 3.22
LTEAEGWHFFCFQGEATRKQAGK | 3.29
LTEAEGWHFFHFQGEATRKLAGK | 2.99
LTEAEGWHFFNFQGEATRKLAGK | 3.04
LTEAEGWHFFTFQGEATRKLAGK | 2.94
LTEAEGWHFFMFQGEATRKLAGK | 2.6
LTEAEGWHFFRFQGEATRKLAGK | 2.33
LTEAEGWHFFAFQGEATRKLAGK | 2.09
LTEAEGWHFFSFQGEATRKLAGK | 3.68
LTEAEGWHFFIFQGEATRKLAGK | 1.66
LTEAEGWHFFEFQGEATRKLAGK | 3.27
LTEAEGWHFFGFQGEATRKLAGK | 3.13
LTEAEGWHFFQFQGEATRKLAGK | 3.46
LTEAEGWHFFWFQGEATRKLAGK | 1.57
LTEAEGWHFFLFQGEATRKLAGK | 2.42
LTEAEGWHFFCFQGEATRKLHGK | 3.24
LTEAEGWHFFCFQGEATRKLDGK | 2.73
LTEAEGWHFFCFQGEATRKLPGK | 1.99
LTEAEGWHFFCFQGEATRKLRGK | 1.71
LTEAEGWHFFCFQGEATRKLCGK | 2.57

Variant | protein stability index
LTEAEGWHFFCFQGEATRKLSGK | 2.16
LTEAEGWHFFCFQGEATRKLYGK | 2
LTEAEGWHFFCFQGEATRKLEGK | 2.25
LTEAEGWHFFCFQGEATRKLFGK | 1.77
LTEAEGWHFFCFQGEATRKLMGK | 1.91
LTEAHGWHFFCFQGEATRKLAGK | 1.85
LTEALGWHFFCFQGEATRKLAGK | 1.29
LTEAMGWHFFCFQGEATRKLAGK | 4.97
LTEAWGWHFFCFQGEATRKLAGK | 2.44
LTEAFGWHFFCFQGEATRKLAGK | 1.79
LTEAQGWHFFCFQGEATRKLAGK | 2.16
LTEAIGWHFFCFQGEATRKLAGK | 3.25
LTEATGWHFFCFQGEATRKLAGK | 1.94
LTEAYGWHFFCFQGEATRKLAGK | 1.97
LTEAKGWHFFCFQGEATRKLAGK | 1.18
LTEAERWHFFCFQGEATRKLAGK | 3.03
LTEAEHWHFFCFQGEATRKLAGK | 2.14
LTEAEMWHFFCFQGEATRKLAGK | 2.05
LTEAEDWHFFCFQGEATRKLAGK | 3.48
LTEAECWHFFCFQGEATRKLAGK | 1.5
LTEAEPWHFFCFQGEATRKLAGK | 2.78
LTEAEEWHFFCFQGEATRKLAGK | 3.1

From the supplement of paper PMC10567573
